Target: T1, recombinant human SSAO (Homo sapiens, UniProt Q16853)
T1 construct: expressed in transfected cells; cell lysate
T1 sequence (Q16853 1-763): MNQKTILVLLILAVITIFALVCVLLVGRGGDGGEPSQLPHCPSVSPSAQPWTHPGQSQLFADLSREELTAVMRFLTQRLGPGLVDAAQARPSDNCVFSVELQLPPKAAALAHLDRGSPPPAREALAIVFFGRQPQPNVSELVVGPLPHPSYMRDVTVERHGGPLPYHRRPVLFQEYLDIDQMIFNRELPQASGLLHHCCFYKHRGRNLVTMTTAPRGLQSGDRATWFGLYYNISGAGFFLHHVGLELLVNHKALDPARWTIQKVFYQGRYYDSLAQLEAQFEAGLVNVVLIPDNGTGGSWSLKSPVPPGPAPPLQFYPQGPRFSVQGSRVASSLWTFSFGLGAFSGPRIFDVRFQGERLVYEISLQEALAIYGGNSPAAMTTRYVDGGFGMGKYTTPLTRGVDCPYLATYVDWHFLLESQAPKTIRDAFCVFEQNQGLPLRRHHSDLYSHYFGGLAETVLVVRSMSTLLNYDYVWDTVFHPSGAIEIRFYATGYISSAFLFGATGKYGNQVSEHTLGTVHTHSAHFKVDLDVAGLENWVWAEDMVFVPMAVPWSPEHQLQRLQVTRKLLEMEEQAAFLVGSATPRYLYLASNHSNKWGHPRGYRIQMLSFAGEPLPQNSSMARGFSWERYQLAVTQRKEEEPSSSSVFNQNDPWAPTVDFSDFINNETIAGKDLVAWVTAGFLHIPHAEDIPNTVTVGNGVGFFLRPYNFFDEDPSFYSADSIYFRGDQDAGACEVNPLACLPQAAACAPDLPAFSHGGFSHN
Assay: Amplex Red assay of specific activity of recombinant human SSAO
Format: biochemical
Description: The Amplex Red assay (a commercially available assay), was used initially to measure the specific activity of the recombinant human SSAO. Amplex Red is a colorless and nonfluorescent derivative of dihydroresorufin. In the presence of amine oxidases and SSAO, the Amplex Red reacts with H2O2 to produce the highly fluorescent product, resorufin. Resorufin has an excitation maximum at 563 nm and emission maximum at 587 nm and the assay can be quantified by reading the microtitre plate at 587 nm. The specific activity of recombinant SSAO was determined to be 280 pmol/min/mg protein and this was determined to be equivalent to the specific activity of SSAO found in human lung tissue. For subsequent assays to profile compounds in the LC/MS/MS assay, recombinant human SSAO (rhSSAO) was used at this defined specific activity.

B1: recombinant SSAO: recombinant human SSAO, full-length untagged, in CHO Flp-In cell lysate (protein, UniProt Q16853 1-763, looked up)
chain: MNQKTILVLLILAVITIFALVCVLLVGRGGDGGEPSQLPHCPSVSPSAQPWTHPGQSQLFADLSREELTAVMRFLTQRLGPGLVDAAQARPSDNCVFSVELQLPPKAAALAHLDRGSPPPAREALAIVFFGRQPQPNVSELVVGPLPHPSYMRDVTVERHGGPLPYHRRPVLFQEYLDIDQMIFNRELPQASGLLHHCCFYKHRGRNLVTMTTAPRGLQSGDRATWFGLYYNISGAGFFLHHVGLELLVNHKALDPARWTIQKVFYQGRYYDSLAQLEAQFEAGLVNVVLIPDNGTGGSWSLKSPVPPGPAPPLQFYPQGPRFSVQGSRVASSLWTFSFGLGAFSGPRIFDVRFQGERLVYEISLQEALAIYGGNSPAAMTTRYVDGGFGMGKYTTPLTRGVDCPYLATYVDWHFLLESQAPKTIRDAFCVFEQNQGLPLRRHHSDLYSHYFGGLAETVLVVRSMSTLLNYDYVWDTVFHPSGAIEIRFYATGYISSAFLFGATGKYGNQVSEHTLGTVHTHSAHFKVDLDVAGLENWVWAEDMVFVPMAVPWSPEHQLQRLQVTRKLLEMEEQAAFLVGSATPRYLYLASNHSNKWGHPRGYRIQMLSFAGEPLPQNSSMARGFSWERYQLAVTQRKEEEPSSSSVFNQNDPWAPTVDFSDFINNETIAGKDLVAWVTAGFLHIPHAEDIPNTVTVGNGVGFFLRPYNFFDEDPSFYSADSIYFRGDQDAGACEVNPLACLPQAAACAPDLPAFSHGGFSHN
modifications: full-length
notes: recombinant human SSAO, full-length untagged, in CHO Flp-In cell lysate
B1 was tested, and the “specific activity of recombinant SSAO” value was 280 pmol/min/mg protein.

— patent US8883410B2, “Method for determining the stability of organic methyleneamines in the presence of semicarbazide-sensitive amine oxidase” (Sanofi, priority 2007, dated 2014)
